Measured values from patent publication US6462173B1, “Inhibitors of phosphoserine and phosphothreonine-proline-specific isomerases” (Max-Planck-Gesellschaft zur Forderung der, priority 1997, dated 2002).

Experiments:
Pin1 [1] = target: T1, Pin1 (Homo sapiens, UniProt Q13526); assay: Pin1 precipitation from interphase and mitotic HeLa extracts probed with antibodies to known mitotic phosphoproteins; assay type: binding
T1 construct: fusion protein containing full length Pin1 was bacterially expressed, purified; made in house
Procedure: (§1) To detect Pin1-binding proteins, either HeLa cells were lysed in or Xenopus extracts were diluted in a buffer (buffer A) containing 50 mM Tris-HCl, pH 8.0, 200 mM NaCl, 100 mM NaF, 1 mM sodium orthovanadate, 10% glycerol, 1% Triton X100, 10 μg/ml aprotinin, 50 μg/ml phenylmethylsulfonyl fluoride and 1 mM DTT. The lysates were preclarified with boiled S. aureus bacteria (CalBiochem) and then incubated with 10 μl of agarose beads containing various GST-Pin1 proteins or control GST for 2 h at 4° C. The precipitated proteins were washed 5 times in the same buffer and subjected to immunoblotting analysis. Immunoprecipitation and immunoblotting analysis using MPM-2 antibody (Davis et al. 1983), which was kindly provided by J. Kuang, Pin1 antibodies (Lu et al., 1996, kindly provided by M. White or newly generated), anti-phospho.Tyr antibody (UBI), anti-Cdc25C (Ogg, et al., 1994) (from H. Piwnica-Worms and Santa Cruz Biotechnology), anti-Cdc27, anti-Plk1 (Zymed), anti-Cdc2 (Solomon, M. J., M. Glotzer, T. H. Lee, M. Philippe and M. W. Kirschner. Cell 63:1013-1024 (1991), anti-human Myt1, anti-human cyclin B1 and anti-Xenopus cyclin B were performed, as described previously in Lu and Hunter, 1995; Lu et al., 1996).
Several known mitotic regulators such as cyclin B, Cdc25, Myt1, Plk1 and Cdc27 are phosphorylated at mitosis. To identify at least a few of the many Pin1 binding proteins, Pin1-binding proteins were precipitated from HeLa cells, or Xenopus extracts and probed with antibodies specific for known mitotic phosphoproteins. As shown previously, levels of Plk1 and cyclin B1 increased at mitosis, whereas similar amounts of Cdc25C were present in interphase and mitotic HeLa cells. […] Similarly, only the mitotic, but not the interphase form of Xenopus Cdc27 was precipitated by Pin1.

MPM-2 antigens = assay: GST-Pin1 pull-down / depletion of MPM-2 antigens from HeLa cell extracts, MPM-2 immunoblotting; assay type: binding, human; settings: mitotic HeLa cell extracts, GST fusion proteins
Procedure: as §1
To determine whether GST-Pin1 can deplete MPM-2 antigens and to estimate what concentrations of Pin1 are required to completely deplete MPM-2 antigens, mitotic extracts were incubated with different amounts of GST-Pin1, followed by analyzing MPM-2 antigens remaining in the depleted supernatants. The total cellular Pin1 concentration in HeLa cells was estimated to be about 0.5 μM, based on immunoblotting analysis using anti-Pin1 antibodies with recombinant Pin1 protein as a standard.
To determine if the Pin1 mutants interact with mitotic phosphoproteins, GST-Pin1, -Pin1^R68,69A and -Pin1^H59A fusion proteins were incubated with interphase or mitotic HeLa cell extracts and associated proteins subjected to MPM-2 immunoblotting analysis. […] A few proteins including the most strongly reacting p55 band could still be recognized. […] Thus, mutating the residues that are implicated in binding either the substrate's putative phosphate group or the substrate's Pro residue abolish the ability of Pin1 to bind MPM-2 antigens.

Cdc25, Cdc27 = assay: Binding of GST-Pin1 mutants to Cdc25 or Cdc27
Procedure: as §1
Several known mitotic regulators such as cyclin B, Cdc25, Myt1, Plk1 and Cdc27 are phosphorylated at mitosis. […]

Pin1 [2] = target: T1, Pin1; assay: Precipitation with GST-Pin1 beads of synthesized phosphoproteins incubated with interphase and mitotic Xenopus extracts; assay type: binding; design: key: +: a week but above background interaction; ++: readily detectable interaction; +++: strong interaction; settings: mitotic Xenopus extracts
Procedure: The binding between Pin1 and all selected mitotic phosphoproteins was assayed by incubating synthesized proteins with interphase and mitotic Xenopus extracts, followed by precipitation with GST-Pin1beads. The Pin1 interactions with those proteins indicated with * were also confirmed by GST-Pin1 pull-down assay from endogenous interphase and mitotic HeLa cell extracts. +, a week but above background interaction; ++, readily detectable interaction; +++, strong interaction.
The mitotic phosphoproteins were translated in vitro using the TNT coupled transcription/translation kit (Promega) in a total volume of 10 μl in the presence of 8 μCi [^35S]methionine (1000 Ci/mmol) for 2 h at 30° C. They were then incubated in xenopus interphase and mitotic extracts as described (Stukenberg et al., 1997). These incubated clones were precipitated by Pin1 beads as described below. The Xenopus Mos and Weel clones were a kind gift of M. Murakami, G, F. Woude and J. Cooper; the Xenopus Cdc25 clone was a generous gift of W. Dunphy, T3 and T3S2 Cdc25 mutants were kindly provided by J. Maller (Izumi and Maller, 1993).
as §1
To gain a sense of the generality of the interaction between Pin1 and mitotic phosphoproteins and to confirm the Pin1 interaction with target proteins is indeed mediated by phosphorylation, the ability of Pin1 to bind other known mitotic phosphoproteins and a set of mitotic phosphoproteins identified by a systematic phosphoprotein screen (Stukenberg et al., Curr Biol 7:338-348 (1997). Proteins synthesized in vitro were phosphorylated in a cell cycle specific manner by incubating them in either Xenopus interphace or mitotic extracts. These labeled protein were subsequently incubated with GST-Pin1 beads that were extensively washed and the bound proteins analyzed by SDS-PAGE. To validate this method, Cdc25 was first tested. Again, the mitotically phosphorylated form of in vitro translated Cdc25 could be precipitated by GST-Pin1 beads. However, Cdc25 was not recognized by Pin1 if it was incubated in interphase extracts. […] Out of the 13 mitotic phosphoproteins examined, Pin1 bound 10 in a mitosis and phosphorylation-dependent manner (summarized in Table 1), including Weel, MP75 and MP110, MP75 and MP110 are Xenopus proteins related to microtubule-associated protein E-MAP-115 and the fission yeast G2 transcription factor Cdc5, respectively.

Pin1 [3] = target: T1, Pin1; assay: Confirmation of interaction between Pin1 and predicted Pin1 substrates; settings: Pin1 binding confirmed in vitro (SC35 inferred from colocalization)
Procedure: On the basis of amino acid preferences deduced in the 6 positions surrounding the pS-P motif for optimal Pin1 binding, a weighted screening of the SWISS-PROT sequence database. Protein sequence database screening was performed with the program INDOVINATOR, using an entropy-based weighing technique to score for relative information content at each amino acid position flanking the pS/pT-P motif with the quantitative peptide library results, which are shown qualitatively in Table 3. […] Many of these proteins are involved in regulation of the cell cycle, cytoskeletal/spindle structure, DNA replication, transcription or RNA processing (Table 4).
Several of these predicted proteins, such as Rab4, Cdc25 and NIMA, undergo mitosis-specific phosphorylation (R. Heald and F. McKeon, Cell 61:579 (1990); E. Bailly, et al., Nature 350:715 (1991); A. Blangy, et al., Cell 83:1159 (1995): J. Kuang, et al., Mol. Biol. Cell 5:135 (1994); X. S. Ye, et al., EMBO J. 14:986 (1995)). Cdc25 and NIMA also binds to Pin1 in a phosphorylation-dependent manner, as described herein. Other proteins identified in this search, however, had not been previously suspected of interacting with Pin1; therefore, a few were further investigated as example cases. […] Thus, Pin1 binds a wide functional range of mitotic phosphoproteins.

T1 sequence (Q13526 whole entry, the tested form may be a part): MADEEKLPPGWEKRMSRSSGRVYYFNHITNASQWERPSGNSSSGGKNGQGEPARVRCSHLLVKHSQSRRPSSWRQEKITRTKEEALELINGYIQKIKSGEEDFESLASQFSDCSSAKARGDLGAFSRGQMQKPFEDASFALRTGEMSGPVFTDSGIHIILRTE

Row | Molecule | precipitation by Pin1 (Pin1 [1]) | Binding Confirmed (Pin1 [3]) | further results
1 | PTP-1B: protein hyperphosphorylated during mitosis | not precipitated by Pin1 in either interphase or mitotic extracts |  | 
2 | Pin1^H59A: Pin1 mutant with Ala substitution at His-59 |  |  | binding of MPM-2 antigens (MPM-2 antigens): significantly reduced compared to the wild-type protein; interaction with Cdc25 or Cdc27 (Cdc25, Cdc27): neither mutant Pin1^R68,69A nor Pin1^H59A interacted with Cdc25 or Cdc27
3 | Plk1: Polo-like kinase, mitotic phosphoprotein | bound selectively only to the mitotically hyperphosphorylated form | Yes | Interaction with Pin1, Mitotic (Pin1 [2]): +++
4 | Cdc25C: cell cycle regulatory protein, predicted Pin1 substrate; human Cdc25C in HeLa extracts (protein) STELFSSTREEGSSGSGPSFRSNQRKMLNLLLERDTSFTVCPDVPRTPVGKFLGDSANLSILSGGTPKRCLDLSNLSSGEITATQLTTSADLDETGHLDSSGLQEVHLAGMNHDQHLMKCSPAQLLCSTPNGLDRGHRKRDAMCSSSANKENDNGNLVDSEMKYLGSPITTVPKLDKNPNLGEDQAEEISDELMEFSLKDQEAKVSRSGLYRSPSMPENLNRPRLKQVEKFKDNTIPDKVKKKYFSGQGKLRKGLCLKKTVSLCDITITQMLEEDSNQGHLIGDFSKVCALPTVSGKHQDLKYVNPETVAALLSGKFQGLIEKFYVIDCRYPYEYLGGHIQGALNLYSQEELFNFFLKKPIVPLDTQKRIIIVFHCEFSSERGPRMCRCLREEDRSLNQYPALYYPELYILKGGYRDFFPEYMELCEPQSYCPMHHQDHKTELLRCRSQSKVQEGERQLREQIALLVKDMSP | bound selectively only to the mitotically hyperphosphorylated form | Yes | 
5 | E-MAP-115: cytoskeletal/spindle protein, predicted Pin1 substrate (protein, UniProt Q14244 2-749, looked up) Ensconsin: AELGAGGDGHRGGDGAVRSETAPDSYKVQDKKNASSRPASAISGQNNNHSGNKPDPPPVLRVDDRQRLARERREEREKQLAAREIVWLEREERARQHYEKHLEERKKRLEEQRQKEERRRAAVEEKRRQRLEEDKERHEAVVRRTMERSQKPKQKHNRWSWGGSLHGSPSIHSADPDRRSVSTMNLSKYVDPVISKRLSSSSATLLNSPDRARRLQLSPWESSVVNRLLTPTHSFLARSKSTAALSGEAASCSPIIMPYKAAHSRNSMDRPKLFVTPPEGSSRRRIIHGTASYKKERERENVLFLTSGTRRAVSPSNPKARQPARSRLWLPSKSLPHLPGTPRPTSSLPPGSVKAAPAQVRPPSPGNIRPVKREVKVEPEKKDPEKEPQKVANEPSLKGRAPLVKVEEATVEERTPAEPEVGPAAPAMAPAPASAPAPASAPAPAPVPTPAMVSAPSSTVNASASVKTSAGTTDPEEATRLLAEKRRLAREQREKEERERREQEELERQKREELAQRVAEERTTRREEESRRLEAEQAREKEEQLQRQAEERALREREEAERAQRQKEEEARVREEAERVRQEREKHFQREEQERLERKKRLEEIMKRTRRTEATDKKTSDQRNGDIAKGALTGGTEVSALPCTTNAPGNGKPVGSPHVVTSHQSKVTVESTPDLEKQPNENGVSVQNENFEEIINLPIGSKPSRLDVTNSESPEIPLNPILAFDDEGTLGPLPQVDGVQTQQTAEVI |  | Yes | 
6 | Splicing factor SC35: nuclear/splicing protein, predicted Pin1 substrate (protein, UniProt Q01130 2-221, looked up) Serine/arginine-rich splicing …: SYGRPPPDVEGMTSLKVDNLTYRTSPDTLRRVFEKYGRVGDVYIPRDRYTKESRGFAFVRFHDKRDAEDAMDAMDGAVLDGRELRVQMARYGRPPDSHHSRRGPPPRRYGGGGYGRRSRSPRRRRRSRSRSRSRSRSRSRSRYSRSKSRSRTRSRSRSTSKSRSARRSKSKSSSVSRSRSRSRSRSRSRSPPPVSKRESKSRSRSKSPPKSPEEEGAVSS |  | Yes | 
7 | NIMA: mitotic phosphoprotein, kinase (protein) MAIALAEADKYEVLEKIGCGSFGIIRKVKRKSDGFILCRKEINYIKMSTKEREQLTAEFNILSSLRHPNIVAYYHREHLKASQDLYLYMEYCGGGDLSMVIKNLKRTNKYAEEDFVWRILSQLVTALYRCHYGTDPAEVGSNLLGPAPKPSGLKGKQAQMTILHRDLKPENIFLGSDNTVKLGDFGLSKLMHSHDFASTYVGTPFYMSPEICAAEKYTLRSDIWAVGCIMYELCQREPPFNARTHIQLVQKIREGKFAPLPDFYSSELKNVIASCLRVNPDHRPDTATLINTPVIRLMRREVELNNLSRAARKREEATMQKAKDVEQAFAKLEKEKQQIRSELENSIRREWEVKARLEIDRQVQNELDKLRKRFECEVQDRVAQEVEKQRRNANYREDASLRSSGHSSQMSSSNSEDSDFPSSTDISQLSLESPTNKAAKLPKKESRTPFTRSKTVVDSPMDIQMAEPSPISIASLSLSPRRTSATYSGKNIFAEGERKRPKFEPTLAYSDDEDDTPELPSPTRPKVKPDPFKAPSRPLLRQNTTALMQKLSTQPPIFPANPSRLPQMSAPDVRESKSRSPHRRLSKIPSSANLAADAGSPTRKNGVKSSPSKMNGGDEMFKAVMQRNMGGRTLVELAQARAGGRPIDEVKRCASDSRSGCSVPMKSADRDPPAVWDPERDEMPSPFLARGRKVIRNLR |  | Yes | Interaction with Pin1, Mitotic (Pin1 [2]): +++
